Measured values taken from paper PMC11341764, “Sae2 controls Mre11 endo- and exonuclease activities by different mechanisms” (Nature Communications, 2024).
Residue numbers refer to the chain shown, from its start.

T1: Rad50-C47 (Saccharomyces cerevisiae, UniProt P12753 1-1312, K1299R)
T1 sequence: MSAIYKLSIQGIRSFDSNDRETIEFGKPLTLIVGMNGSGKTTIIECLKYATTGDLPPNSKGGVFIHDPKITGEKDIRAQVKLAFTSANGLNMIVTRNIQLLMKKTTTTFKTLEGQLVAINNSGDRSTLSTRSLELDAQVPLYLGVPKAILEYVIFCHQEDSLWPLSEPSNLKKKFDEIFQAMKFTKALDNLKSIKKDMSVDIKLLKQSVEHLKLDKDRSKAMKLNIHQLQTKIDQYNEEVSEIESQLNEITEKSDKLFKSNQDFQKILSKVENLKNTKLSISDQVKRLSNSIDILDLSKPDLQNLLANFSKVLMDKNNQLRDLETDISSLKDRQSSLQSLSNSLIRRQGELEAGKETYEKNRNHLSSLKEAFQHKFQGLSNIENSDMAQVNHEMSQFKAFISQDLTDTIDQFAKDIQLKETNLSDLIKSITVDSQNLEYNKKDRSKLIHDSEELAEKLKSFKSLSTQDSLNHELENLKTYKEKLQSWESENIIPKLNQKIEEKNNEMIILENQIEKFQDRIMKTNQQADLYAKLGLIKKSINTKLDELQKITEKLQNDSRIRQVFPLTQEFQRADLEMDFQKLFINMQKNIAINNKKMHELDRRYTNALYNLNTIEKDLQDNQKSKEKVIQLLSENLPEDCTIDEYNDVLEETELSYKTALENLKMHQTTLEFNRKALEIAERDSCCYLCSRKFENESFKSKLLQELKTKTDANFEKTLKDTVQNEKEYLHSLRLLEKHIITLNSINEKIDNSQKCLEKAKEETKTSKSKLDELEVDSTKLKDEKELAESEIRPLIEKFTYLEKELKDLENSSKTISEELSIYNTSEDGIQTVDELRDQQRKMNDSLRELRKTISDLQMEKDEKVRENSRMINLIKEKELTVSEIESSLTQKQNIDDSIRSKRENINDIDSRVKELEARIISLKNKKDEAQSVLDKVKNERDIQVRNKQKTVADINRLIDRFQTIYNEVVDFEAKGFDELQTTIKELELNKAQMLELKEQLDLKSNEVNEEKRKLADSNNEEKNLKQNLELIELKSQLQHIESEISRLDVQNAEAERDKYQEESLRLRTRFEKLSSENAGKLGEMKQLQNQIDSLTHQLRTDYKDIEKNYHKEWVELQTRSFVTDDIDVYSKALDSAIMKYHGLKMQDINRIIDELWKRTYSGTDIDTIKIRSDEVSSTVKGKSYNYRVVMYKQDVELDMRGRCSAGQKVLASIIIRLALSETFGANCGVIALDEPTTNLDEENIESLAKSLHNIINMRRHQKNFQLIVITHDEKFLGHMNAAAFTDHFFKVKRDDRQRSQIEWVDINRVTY

B1: 70 bp dsDNA (PC210/PC211) (dsDNA)
DNA 1: GTAAGTGCCGCGGTGCGGGTGCCAGGGCGTGCCCTTGGGCTCCCCGGGCGCGTACTCCACCTCATGCATC
DNA 2: GATGCATGAGGTGGAGTACGCGCCCGGGGAGCCCAAGGGCACGCCCTGGCACCCGCACCGCGGCACTTAC
modifications: biotinylated dT in the oligonucleotides (Table S1; positions marked by bold underline, lost in the text)
B2: phosphorylated MBP-Sae2 (natural protein, yeast, UniProt P46946 1-345, looked up)
chain: MVTGEENVYLKSSLSILKELSLDELLNVQYDVTTLIAKRVQALQNRNKCVLEEPNSKLAEILCHEKNAPQQSSQTSAGPGEQDSEDFILTQFDEDIKKESAEVHYRNENKHTVQLPLVTMPPNRHKRKISEFSSPLNGLNNLSDLEDCSDTVIHEKDNDKENKTRKLLGIELENPESTSPNLYKNVKDNFLFDFNTNPLTKRAWILEDFRPNEDIAPVKRGRRKLERFYAQVGKPEDSKHRSLSVVIESQNSDYEFAFDNLRNRSKSPPGFGRLDFPSTQEGNEDKKKSQEIIRRKTKYRFLMASNNKIPPYEREYVFKREQLNQIVDDGCFFWSDKLLQIYARC
modifications: phosphorylated (expressed in the presence of phosphatases inhibitors); sites not stated
notes: Sae2, yeast, from the pFB-MBP-Sae2-His vector expressing MBP and His-tagged Sae2; also called MBP-pSae2; source: Sf9, from extracts, held on amylose resin and washed
B3: Rad50-FLAG (wild-type) (natural protein, yeast, UniProt P12753 1-1312, looked up)
chain: T1 sequence with R1299K
notes: Rad50, yeast, expressed from the pFB-RAD50-FLAG vector; Dimeric by mass photometry; also called Rad50-WT; wild-type Rad50 protein

Key:
Rad50-C47-FLAG (yeast) = Rad50-C47-FLAG (yeast) (UniProt P12753); assay: mass photometry; Rad50 variants alone; molecular weight estimated
Rad50-C47 = molecular target: T1, Rad50-C47; assay: EMSA; 1 mM ATP-gamma-S, 5 mM Mg2+; comparable to WT; 25 mM Tris-acetate pH 7.5, 5 mM Mg chloride, 1 mM DTT, 0.25 ug/ul BSA, 1 mM ATP-gamma-S, 1 nM DNA, 15 min at 30 C; 6% PAGE in TAE on ice; conditions: protein: recombinant; tags: FLAG; chain copies: 2; label: PC210 3' 32P-dC added by TdT; blunt apart from the 3' TdT-added labeled dC on PC210
Rad50-FLAG (wild-type) = molecular target: B3; assay: pull-down; MBP-pSae2 (bait) from Sf9 extracts immobilised on amylose resin and washed, incubated 1 h at 4 °C with 2.5 μg purified Rad50-FLAG variants (prey); 50 mM Tris-HCl pH 7.5, 2 mM EDTA, 80 mM NaCl, 0.2% NP40; eluted with 20 mM maltose; anti-FLAG blot; conditions: both partners purified
[1] = molecular target: the molecule itself; assay: mass photometry; Rad50 variants alone; molecular weight estimated

In the case of “Rad50-C47-FLAG (from UniProt P12753 1-1312) (natural protein)”, the stoichiometry N (Rad50-C47-FLAG (yeast)) is reported as 2.

B1: binds (Rad50-C47).

B2: binds (Rad50-FLAG (wild-type)).

B3 was tested, and the “stoichiometry N” value [1] was 2.
